The text below walks through data of US20150118725A1 (GLOBAL BIOENERGIES, priority 2012, published 2015).

The subject of data set [1] is Streptococcus mitis MDP decarboxylase (strain B6, SEQ ID NO: 10). Description: Phosphotransferase activity on mevalonate (pyruvate kinase/lactate dehydrogenase coupled ADP assay). Type of data set: biochemical. To be noted: 40° C., pH 7.5, 5 mM ATP, 0 to 5 mM R,S-sodium mevalonate. An excerpt:
(§1) 1.5 U/ml Lactate dehydrogenase
(§2) The pH was adjusted to 7.5.

Data set [2] is described as follows: Complementation assay: Th. acidophilum MDP decarboxylase (mutant L200E) with each tested MDP decarboxylase, isoprenol by GC-FID. Conditions: 0.01 mg Th. acidophilum (L200E) enzyme + 0.5 mg tested enzyme in 0.1 ml, 200 mM mevalonate, 37° C., 24 h (FIG. 7). Format: biochemical. As to the method:
MDP decarboxylases were evaluated using a complementation assay. Th. acidophilum MDP decarboxylase (mutant L200E) was incubated together with each tested enzyme from the library.
The combined enzymatic assay was carried out under the following conditions:
The pH was adjusted to 7.5
0.01 mg of the Th. acidophilum enzyme and 0.5 mg of the MDP decarboxylase to be tested were added to 0.1 ml of reaction mixture. Reaction mixture containing only […] of the Th. acidophilum MDP decarboxylase (L200E) was used as reference. The assays were incubated without shaking at 37° C. for 24 h in a sealed vial (Interchim). The isoprenol production was analyzed as follows. An aliquot of 50 μl of liquid phase was removed and mixed with 100 μl of ethyl acetate. 100 μl of the upper ethyl acetate phase was transferred to a clean vial for analysis by gas chromatography. Commercial isoprenol was used as reference. The samples were analyzed on a Varian GC-430 gas chromatograph equipped with a flame ionization detector (FID). […] The retention time of isoprenol in these conditions was 7.38 min.

Data set [3] is described as follows: Combined enzymatic assay: Th. acidophilum (L200E) and S. mitis MDP decarboxylases, isoprenol by GC. Format: biochemical. Conditions: 0 to 0.4 mg S. mitis enzyme with 0.01 mg Th. acidophilum (L200E) in 0.1 ml, 37° C., 24 h (FIG. 10). As to the method: 0.01 mg of purified MDP decarboxylase from Th. acidophilum (mutant L200E) and 0.2 mg of purified MDP decarboxylase from S. mitis were added to 0.1 ml of reaction mixture. Control reactions were performed in which either no enzyme was added, or no ATP was added.
To validate the combined action of two enzymes, a series of additional controls were carried out. In one assay, MDP decarboxylase from S. mitis (0.21 mg) was the only enzyme using as the catalyst. In the other experiment, 0.21 mg of the Th. acidophilum (L200E) enzyme was added, lacking S. mitis decarboxylase. The assays were incubated in a sealed vial (Interchim) without shaking for 24 hours at 37° C. Isoprenol extraction and analysis were performed according to the procedure described in Example 4.
The effect of S. mitis MDP decarboxylase concentration was assessed under the following conditions:
0.01 mg of purified MDP decarboxylase from Th. acidophilum (mutant L200E) and a varying amount (from 0 to 0.4 mg) of purified MDP decarboxylase from S. mitis were added to 0.1 ml of reaction mixture. The mixtures were then incubated without shaking at 37° C. for 24 h in a sealed vial. Isoprenol extraction and analysis were performed according to the procedure described in Example 4.

Data set [4] can be described thus: Phosphotransferase activity: ADP release in the pyruvate kinase/lactate dehydrogenase coupled assay. Type of data set: biochemical. To be noted: 40° C., pH 7.5.
Text: as §1, §2

Substrate in data set [5]: CC(O)(CCO)CC(=O)O
Put plainly: purified protein, by the assay type. Format: biochemical, Thermoplasma acidophilum. Conditions: other: 40° C., pH 7.5, 5 mM ATP, 0 to 5 mM R,S-sodium mevalonate.
Text: as §1, §2

One may read the Km as the concentration of substrate that gives half-maximal velocity. For orientation: kcat means the number of substrate molecules converted per active site and unit of time at saturation. With `CC(O)(CCO)CC(=O)O` (stereo not drawn) [mevalonate], in data set [1], the Km was 200 µM and the kcat turned out to be 0.002 s⁻¹.

B1: Streptococcus mitis: MDP decarboxylase from Streptococcus mitis (strain B6), SEQ ID NO: 10 (protein)
chain: MDREPVTVRSYANIAIIKYWGKKKEKEMVPATSSISLTLENMYTETTLSSLPTDATADAFYINGQLQNEAEHVKMSKIIDRYRPDGDGFVRIDTQNSMPTAAGLSSSSSGLSALVKACNAYFKLGLNRSQLAQEAKFASGSSSRSFYGPLGAWDKDSGEIYPVETGLKLAMIMLVLEDKKKPISSRDGMKLCVETSTTFDDWVRQSEKDYQDMLVYLKANDFAKVGELTEKNALAMHATTKTASPAFSYLTDASYEAMDFVRQLREQGEACYFTMDAGPNVKVLCQEKDLEHLSEIFGQRYRLIVSKTKDLSQDGCC
modifications: Streptococcus mitis (strain B6)
Consider B1, for which the “isoprenol production in combined assay” value in data set [2] is given as “highest production of isoprenol”. Further, the “effect of enzyme concentration on amount of produced isoprenol” value in data set [3] was “increase of the amount of produced isoprenol”. Moreover, in data set [4], the “phosphotransferase activity (ADP production in the presence of mevalonate)” value is “reproducible increase in ADP production”.

B2: Thermoplasma acidophilum MDP decarboxylase mutant L200E (SEQ ID NO: 16) (Thermoplasma acidophilum DSM 1728; L200E) (protein)
chain: MLHHHHHHTYRSIGSTAYPTIGVVLLGGIANPVTRTPLHTSAGIAYSDSCGSIRSETRIYADEATHIYFNGTESTDDNRSVRRVLDRYSSVFEEAFGTKTVSYSSQNFGILSGSSDAGAASIGAAILGLKPDLDPHDVENDLRAVSESAGRSLFGGLTITWSDGFHAYTEKILDPEAFSGYSIVAFAFDYQRNPSDVIHQNIVRSDEYPARKKHADEHAHMIKEYAKTNDIKGIFDLAQEDTEEYHSILRGVGVNVIRENMQKLISYLKLIRKDYWNAYIVTGGSNVYVAVESENADRLFSIENTFGSKKKMLRIVGGAWHRRPE
The kcat/Km is the second-order rate constant that governs catalysis at low substrate concentration. Turning to B2, in data set [5], the Km came out at 0.50 mM, the kcat worked out at 2.5 s⁻¹ and the kcat/Km worked out at 5000 M⁻¹ s⁻¹.

B3: S. cerevisiae MDP decarboxylase: MDP decarboxylase of Saccharomyces cerevisiae, SEQ ID NO: 22 (protein, listed as Saccharomyces cerevisiae)
chain: MTVYTASVTAPVNIATLKYWGKRDTKLNLPTNSSISVTLSQDDLRTLTSAATAPEFERDTLWLNGEPHSIDNERTQNCLRDLRQLRKEMESKDASLPTLSQWKLHIVSENNFPTAAGLASSAAGFAALVSAIAKLYQLPQSTSEISRIARKGSGSACRSLFGGYVAWEMGKAEDGHDSMAVQIADSSDWPQMKACVLVVSDIKKDVSSTQGMQLTVATSELFKERIEHVVPKRFEVMRKAIVEKDFATFAKETMMDSNSFHATCLDSFPPIFYMNDTSKRIISWCHTINQFYGETIVAYTFDAGPNAVLYYLAENESKLFAFIYKLFGSVPGWDKKFTTEQLEAFNHQFESSNFTARELDLELQKDVARVILTQVGSGPQETNESLIDAKTGLPKE
For B3, the “isoprenol production in combined assay” value in data set [2] is given as “highest production of isoprenol”.
